Results on two variants are retold here after IntAct's records for PubMed 22247544.

First the molecules themselves.
B1: Corticotropin-releasing factor receptor 1 (Homo sapiens), P34998 (parent)
chain: MGGHPQLRLVKALLLLGLNPVSASLQDQHCESLSLASNISGLQCNASVDLIGTCWPRSPAGQLVVRPCPAFFYGVRYNTTNNGYRECLANGSWAARVNYSECQEILNEEKKSKVHYHVAVIINYLGHCISLVALLVAFVLFLRLRSIRCLRNIIHWNLISAFILRNATWFVVQLTMSPEVHQSNVGWCRLVTAAYNYFHVTNFFWMFGEGCYLHTAIVLTYSTDRLRKWMFICIGWGVPFPIIVAWAIGKLYYDNEKCWFGKRPGVYTDYIYQGPMILVLLINFIFLFNIVRILMTKLRASTTSETIQYRKAVKATLVLLPLLGITYMLFFVNPGEDEVSRVVFIYFNSFLESFQGFFVSVFYCFLNSEVRSAIRKRWHRWQDKHSIRARVARAMSIPTSPTRVSFHSIKQSTAV

In the assay the parent is B1. The settings on record: with GNAI2, P04899-1.
Sequence of GNAI2, P04899-1 (P04899 whole entry): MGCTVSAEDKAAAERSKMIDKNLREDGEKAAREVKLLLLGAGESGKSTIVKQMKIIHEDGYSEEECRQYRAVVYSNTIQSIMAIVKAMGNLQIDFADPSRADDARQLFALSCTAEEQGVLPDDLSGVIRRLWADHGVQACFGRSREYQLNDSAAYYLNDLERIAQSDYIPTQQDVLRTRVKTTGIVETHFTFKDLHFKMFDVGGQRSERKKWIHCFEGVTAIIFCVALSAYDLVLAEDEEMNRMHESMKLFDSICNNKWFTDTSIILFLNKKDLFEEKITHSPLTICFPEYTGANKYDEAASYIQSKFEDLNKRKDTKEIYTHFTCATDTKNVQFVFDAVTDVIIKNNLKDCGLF
Turning to MGGHPQLRLVKALLLLGLNPVSASLQDQHCESLSLASNISGLQCNASVDLIGTCWPRSPAGQLVVRPCPAFFYGVRYNTTNNGYRECLANGSWAARVNYSECQEILNEEKKSKVHYHVAVIINYLGHCISLVALLVAFVLFLRLRSIRCLRNIIHWNLISAFILRNATWFVVQLTMSPEVHQSNVGWCRLVTAAYNYFHVTNFFWMFGEGCYLHTAIVLTYSTDRLRKWMFICIGWGVPFPIIVAWAIGKLYYDNEKCWFGKRPGVYTDYIYQGPMILVLLINFIFLFNIVRILMTKLRASTTSETIQYRKAVAATLVLLPLLGITYMLFFVNPGEDEVSRVVFIYFNSFLESFQGFFVSVFYCFLNSEVRSAIRKRWHRWQDKHSIRARVARAMSIPTSPTRVSFHSIKQSTAV [K314A], the “effect of a mutation on the interaction” value is “decreasing interaction strength”. Then MGGHPQLRLVKALLLLGLNPVSASLQDQHCESLSLASNISGLQCNASVDLIGTCWPRSPAGQLVVRPCPAFFYGVRYNTTNNGYRECLANGSWAARVNYSECQEILNEEKKSKVHYHVAVIINYLGHCISLVALLVAFVLFLRLRSIRCLRNIIHWNLISAFILRNATWFVVQLTMSPEVHQSNVGWCRLVTAAYNYFHVTNFFWMFGEGCYLHTAIVLTYSTDRLRKWMFICIGWGVPFPIIVAWAIGKLYYDNEKCWFGKRPGVYTDYIYQGPMILVLLINFIFLFNIVAILMTKLRASTTSETIQYRKAVKATLVLLPLLGITYMLFFVNPGEDEVSRVVFIYFNSFLESFQGFFVSVFYCFLNSEVRSAIRKRWHRWQDKHSIRARVARAMSIPTSPTRVSFHSIKQSTAV [R292A], with “decreasing interaction strength”.
